Legend:
[1] = molecular target: T1, recombinant human IL-6 (human, UniProt P05231 30-212); assay: cell-based or functional assay
[2] = molecular target: T1, recombinant human IL-6; assay: SPR (BIAcore 2000, 25 C); cCLB8 captured on anti-human Fc, IL-6 as analyte; 1:1 model
Protocol: (§1) An anti-human Fc (1.8 mg/ml) was diluted to a concentration of 50 μg/ml in NaOAc buffer (10 mM, pH 4.8) and coupled to the carboxymethylated dextran matrix of a CM-5 sensor chip using the manufacturer's amine-coupling chemistry as described in the BIAcore systems manual. Using the surface preparation wizard aiming for 10000 RU, the carboxyl groups on the sensor surfaces were first activated with NHS/EDC followed by the addition of the anti-human Fc. The remaining activated groups were blocked by the injection of 1M ethanolamine. Each of the flow cells was coupled individually. Employing these conditions, the four flow cell surfaces containing 7554-9571 resonance units (RU) of anti-human Fc were prepared. In preliminary experiments, it was determined that three injections (15 ul at 30 μl/min) 100mM H3PO4/0.05% CHAPS would efficiently remove the bound immunoglobulin and preserve the binding capacity of the immobilized anti-human Fc.
(§2) Two experiments were performed on the BIAcore 2000 at 25 °C and a flow rate of 30 μL/min. cCLB8 was dissolved in HBS at 5 ug/ml. […] A designated amount of antibody was flowed over its respective flow cell followed by injections of 30 μl of each IL-6 concentration at 30 μl/min (association phase) and an uninterrupted 800 seconds of buffer flow (dissociation phase). The surface of the chip was regenerated by three sequential injections of 15 μl each with 100 mM H3PO4/0.05% CHAPS. The injections of HBS serve as a reference (blank sensogram) for the subtraction of bulk refractive indices for analysis. Using the 1:1 model in BIAanalysis 3.0, a local fit was done for both dissociation (kd, [s−1] and association (ka, [M-1s−1]) and the dissociation constant (KD, [M]) calculated (kd/ka).
(§3) Analysis was done using BIAevaluation version 3.0. Kinetic constants were derived from sensogram data by fitting the experimental curves to the rate equations derived from models of the interaction mechanism. A global analysis using a 1:1 binding model with local RUmax fit, the ka, kd, KD were determined (Table 1).

[3] = molecular target: T1, recombinant human IL-6; assay: SPR (BIAcore 2000, 25 C); cCLB8 captured on anti-human Fc, IL-6 as analyte; 1:1 model; second experiment
Protocol: as §1, §2, §3

[4] = molecular target: T1, recombinant human IL-6; assay: solid phase EIA, plate coated with recombinant human IL-6 at 1 µg/mL, detection with HRP goat anti-human IgG, OD 490
Protocol: A solid phase EIA was used to assess binding characteristics of cCLB8 Mab to human IL-6. Briefly, plates were coated with recombinant human IL-6 (RDI) at 1 μg/mL in PBS overnight at 4° C. After washing in 0.15M saline containing 0.02% (v/v) Tween 20, the wells were blocked with 1% (w/v) BSA in PBS, 200 μL/well for 1 hour at RT. Purified antibody was incubated in two-fold serial dilutions from a starting concentration of 5 μg/mL for 1 hour at 37° C. The plate was washed and then probed with 50 μL/well HRP-labeled goat anti-human IgG (Tago) diluted 1:20,000 in 1% BSA-PBS for 1 hour at RT. The plate was again washed and 100 μL/well of the citrate-phosphate substrate solution (0.1 M citric acid and 0.2M sodium phosphate, 0.01% H₂O₂ and 1 mg/mL OPD) was added for 15 minutes at RT. Stop solution (4N sulfuric acid) was then added at 25 μL/well and the absorption at 490 nm quantitated using an automated plate photometer.

B1: chimeric CLB8 anti-human IL-6 monoclonal antibody (antibody, IgG1, V domains shown)
VH: EVQLVESGGKLLKPGGSLKLSCAASGFTFSSFAMSWFRQSPEKRLEWVAEISSGGSYTYYPDTVTGRFTISRDNAKNTLYLEMSSLRSEDTAMYYCARGLWGYYALDYWGQGTSVTVSS
VL: QIVLIQSPAIMSASPGEKVTMTCSASSSVSYMYWYQQKPGSSPRLLIYDTSNLASGVPVRFSGSGSGTSYSLTISRMEAEDAATYYCQQWSGYPYTFGGGTKLEIK
notes: Murine CLB-8 variable regions joined to human constant regions; IgG1 and kappa are named only as preferred; also called anti-IL-6 cCLB-8 antibody; CNTO 328
[1]
  EC50 of inhibition of IL-6 induced 7TD1 cell proliferation (luminescent ATP assay): 7.2 ng/mL
[2]
  Kd: 0.057 nM
  koff: 6.2e-05 s⁻¹
  kon: 1.1e+06 M⁻¹ s⁻¹
[3]
  Kd: 0.14 nM
  koff: 5.2e-05 s⁻¹
  kon: 370000 M⁻¹ s⁻¹
[4]
  EC50 (read off the curve): ~4 ng/mL

— patent US20070292420A1 (Janssen / Centocor, published 2007)
